For one data set, the target named is PKR (Homo sapiens) (UniProt P19525). The settings on record: cited from earlier work.
Data set [1] deals with the molecule itself. The data set is described as follows: AUC.
Data set [2] concerns the molecule itself. Nature of the data set: AUC. This is another data set of the same source.

Here are results for three molecules from publication PMC4718896 (Biochemistry, 2015).

Read-outs that look alike come from different tables or passages of the source.

The Kd is the free concentration of one partner at which half of the binding sites on the other are occupied at equilibrium, for simple one-to-one binding. A word on the stoichiometry N: it is the number of molecules, sites or subunits per partner or assembly.

Turning to PKR (from UniProt P19525), the Kd with PKR (Homo sapiens) was 500 µM.

B1: PKRΔVB (human PKR with the whole interdomain linker, variable and basic regions, deleted) (enzyme, UniProt P19525 1-551, looked up)
chain: MAGDLSAGFFMEELNTYRQKQGVVLKYQELPNSGPPHDRRFTFQVIIDGREFPEGEGRSKKEAKNAAAKLAVEILNKEKKAVSPLLLTTTNSSEGLSMGNYIGLINRIAQKKRLTVNYEQCASGVHGPEGFHYKCKMGQKEYSIGTGSTKQEAKQLAAKLAYLQILETKYTVDKRFGMDFKEIELIGSGGFGQVFKAKHRIDGKTYVIKRVKYNNEKAEREVKALAKLDHVNIVHYNGCWDGFDYDPETSDDSLESSDYDPENSKNSSRSKTKCLFIQMEFCDKGTLEQWIEKRRGEKLDKVLALELFEQITKGVDYIHSKKLIHRDLKPSNIFLVDTKQVKIGDFGLVTSLKNDGKRTRSKGTLRYMSPEQISSQDYGKEVDLYALGLILAELLHVCDTAFETSKFFTDLRDGIISDIFDKKEKTLLQKLLSKKPEDRPNTSEILRTLTVWKKSPEKNERHTC
For B1, in the data set “AUC [1]”, binding was characterised by a dissociation constant (Kd) of 1730 µM and the “stoichiometry N” value was 2.

B2: PKRΔV (human PKR with the variable region of the interdomain linker deleted) (enzyme, UniProt P19525 1-551, looked up)
chain: MAGDLSAGFFMEELNTYRQKQGVVLKYQELPNSGPPHDRRFTFQVIIDGREFPEGEGRSKKEAKNAAAKLAVEILNKEKKAVSPLLLTTTNSSEGLSMGNYIGLINRIAQKKRLTVNYEQCASGVHGPEGFHYKCKMGQKEYSIGTGSTKQEAKQLAAKLAYLQILMNGLRNNQRKAKRSLAPRFDLPDMKETKYTVDKRFGMDFKEIELIGSGGFGQVFKAKHRIDGKTYVIKRVKYNNEKAEREVKALAKLDHVNIVHYNGCWDGFDYDPETSDDSLESSDYDPENSKNSSRSKTKCLFIQMEFCDKGTLEQWIEKRRGEKLDKVLALELFEQITKGVDYIHSKKLIHRDLKPSNIFLVDTKQVKIGDFGLVTSLKNDGKRTRSKGTLRYMSPEQISSQDYGKEVDLYALGLILAELLHVCDTAFETSKFFTDLRDGIISDIFDKKEKTLLQKLLSKKPEDRPNTSEILRTLTVWKKSPEKNERHTC
B2: in “AUC [2]”, the Kd came out at 1100 µM and the “stoichiometry N” value stood at 2.
